Values joined by “and” are separate entries in the source; they are usually repeats but may differ in a detail not shown here. Equal entries are not always repeated. “Also recorded” adds a separate entry of the source.
Columns and labels:
[1] = system: doxorubicin-resistant colorectal carcinoma LS174t; test: LS174t human colorectal carcinoma xenograft efficacy; format: in vivo, nude mice; conditions: uncorrected
Protocol: (§1) In repeat-dose studies in tumor bearing mice, groups of ten mice were dosed with various amounts of prodrug for a total of five doses at either five day or 1 week intervals.

[2] = system: LNCaP, HT-29 and PC-3 cells; test: 3H-thymidine proliferation assay, stated across the cell lines used; format: cell-based; conditions: 48 hours, 3H-thymidine incorporation; read-out: IC50 of the positive control in the cell lines used
Protocol: (§2) Adherent cells, LNCaP (prostate carcinoma), HT-29 (colon carcinoma) and PC-3 (prostate carcinoma), were cultured in DMEM media containing 10% heat inactivated fetal calf serum (FCS). On the day of the study the cells were detached from the plate with a trypsin solution. The collected cells were washed and resuspended at a concentration of 0.25×10^6 cells/ml in DMEM containing 10% FCS. 100 μl of cell suspension were added to 96 well plates and the plates were incubated for 3 hours to allow the cells to adhere. […] The plates were then incubated for 24 hours, pulsed with 10 μl of a 100 μCi/ml ^3H-thymidine and incubated for an additional 24 hours (total incubation time 48 hours). The plates were harvested using a 96 well Harvester (Packard Instruments) and counted on a Packard Top Count Counter. Four parameter logistic curves were fitted to the ^3H-thymidine incorporation as a function of drug molarity using Prism software to determine IC50 values.
(§3) Prostate carcinoma cells, LNCaP and PC-3 cells or colon carcinoma cells HT-29, were incubated with increasing concentration of the indicated compounds for 48 hours and cellular proliferation was measured using the ^3H-thymidine assay.

[3] = Metabolism and clearance in normal mice (plasma and urine, LC MS/MS); format: in vivo
Protocol: The metabolism and clearance of Suc-Ile-Ala-Leu-Dox was studied in normal mice. The mice were administered Suc-Ile-Ala-Leu-Dox at a single intravenous bolus dose of 117 mg/kg. Plasma samples were obtained at 1 and 4 hours. Plasma samples of 100 μl were transferred to Eppendorf tubes (1.5 mL) and an internal standard of daunorubicin (20 μL at 0.5 mg/ml) was added together with acetonitrile (400 μl). The tubes were capped and briefly vortexed followed by centrifugation at 14,000 rpm. 420 μl from each tube was removed and dried in vacuo. Each sample was reconstituted in 65 μl ammonium formate containing acetonitrile (20%) prior to analysis by reverse phase liquid chromatography in combination with tandem mass spectrometry (LC MS/MS).
Urine was collected at 2 and 24 hours post administration from pairs of mice in metabolic cages. Urine samples were diluted with ammonium formate containing acetonitrile (20%) to give a target analyte concentration within the practical range of the LC MS/MS assay. 30 μl of each diluted sample was placed in an Eppendorf tube (1.5 ml) and an internal standard of daunorubicin (20 μL at 0.5 mg/ml) was added together with 50 μl of ammonium formate containing acetonitrile (20%). Each sample was then analyzed by LC MS/MS.
An Agilent HP 1100. HPLC with DAD detector and Chemstation software was coupled to a PE Sciex API 365 mass spectrometer with an electrospray ion source.
HPLC was performed on a TSK-Gel Super ODS, […], 4.6×50 mm (TosoHaas) reversed phase column equipped with a […] C18 guard disc (Higgins Analytical) and stainless steel frit (Upchurch Scientific). Chromatography was performed at room temperature. The flow rate was 0.5 ml/min. Injection volume was 50 μl. Gradient elution was performed using a mobile phase of 20 mM ammonium formate with increasing amounts of acetonitrile. The API 365 was operated at 365° C. in a multiple reaction monitoring mode, set to monitor specific analyte parent-daughter ion pairs. Integration of chromatograms was performed by MacQuan software (PE Sciex) and quantitation of each analyte obtained by comparison to previously obtained calibration curves. Daunorubicin was used as an internal standard in all cases.
Percent of administered dose—plasma volume estimated at 40% of blood volume, which was calculated at 7% of animal's body weight.
Plasma samples were obtained at 1 and 4 hours from separate mice. Urine was collected at 2 and 24 hours post administration from pairs of mice in metabolic cages. The plasma and urine samples were prepared and analyzed as described in Example 4.

tumor bearing mice [4] = conditions: repeat dosing, 5 doses; cited from earlier work
[5] = system: doxorubicin-resistant colorectal carcinoma LS174t; conditions: tolerated dose under this dosing regimen; cited from earlier work
[6] = Metabolism and clearance in normal mice (plasma and urine, LC MS/MS); format: in vivo; conditions: after Suc-βAla-Ile-Ala-Leu-Dox 117 mg/kg
[7] = system: LNCaP (prostate carcinoma) cells; conditions: read-out: IC50 LNCaP; 48 hours, 3H-thymidine incorporation
Protocol: as §2, §3

[8] = system: PC-3 (prostate carcinoma) cells; conditions: read-out: IC50 PC-3; 48 hours, 3H-thymidine incorporation
Protocol: as §2, §3

[9] = system: HT-29 (colon carcinoma) cells; conditions: read-out: IC50 HT29; 48 hours, 3H-thymidine incorporation
Protocol: as §2, §3

normal ICR mice = test: Second single dose Maximum Tolerated Dose (SD-MTD) study, 49 days; conditions: for acute toxicity within 24 hours: any dose level; for SD-MTD (mg/kg Dox=): doxorubicin equivalent
Protocol: (§4) In a second single dose Maximum Tolerated Dose (SD-MTD) study, groups of five normal ICR mice were administered intravenously bolus doses of Suc-Ile-Ala-Leu-Dox. The mice were observed daily for 49 days and body weights measured twice weekly.
(§5) In a second single dose Maximum Tolerated Dose (SD-MTD) study, groups of five normal ICR mice were administered intravenous bolus doses of Suc-βAla-Ile-Ala-Leu-Dox. The mice were observed daily for 49 days and body weights measured twice weekly.

[10] = mouse, in vivo, iv, 100 umol/kg
Protocol: (§9) Plasma was obtained from three individual animals in each group at 5 minutes, 1, 2, 4, or 6 hr.

normal mice = test: Initial single dose Maximum Tolerated Dose (MTD) study, 28 days; format: in vivo; conditions: for single dose MTD fold higher than doxorubicin alone, after post-analysis: about 75% active compound, versus doxorubicin […] mg/kg; for acute toxicity / single-dose MTD, doxorubicin equivalent: intravenous bolus; for acute toxicity: all dose levels tested; for single-dose MTD, doxorubicin equivalent: normal mice; for single-dose MTD fold higher than doxorubicin alone: versus doxorubicin 4 mg/kg
Protocol: (§6) In our initial single dose Maximum Tolerated Dose (MTD) study, groups of five normal mice were administered intravenous bolus doses of Suc-Ile-Ala-Leu-Dox. The mice were observed daily for 28 days and body weights measured twice weekly.
(§7) The mice were observed daily for 28 days and body weights measured twice weekly.
(§8) In the single dose Maximum Tolerated Dose (MTD) studies, groups of normal mice were administered intravenous bolus doses of the prodrug. The mice were observed daily for 28 days and body weights measured twice weekly. The MTD was estimated to be equal to the highest dose that produced no death in mice after 28 days.

[11] = as above; format: in vivo, mice; conditions: mouse, in vivo
Protocol: as §6, §7, §8

[12] = for Major Plasma Metabolite, Table 7 / Major Plasma Metabolite, Table 8: mice
Protocol: as §9

[13] = Second single dose Maximum Tolerated Dose (SD-MTD) study, 49 days; conditions: mouse, in vivo, iv
Protocol: as §4, §5

tumor bearing mice [14] = test: Repeat-dose tolerance (RD-MTD) in tumor bearing mice; format: in vivo
Protocol: as §1

[15] = as above; format: in vivo; conditions: mouse, in vivo
Protocol: as §1

[16] = after Suc-Ile-Ala-Leu-Dox 117 mg/kg, collected 0-2 hours
[17] = after Suc-Ile-Ala-Leu-Dox 117 mg/kg, collected 2-24 hours
[18] = 28 days, uncorrected doses, read-out: SD MTD (mg/kg), Table 7
[19] = SD MTD, doxorubicin equivalent dose, Table 8, value in parentheses, corrected results
[20] = SD MTD, molar equivalent dose of doxorubicin, Table 7, value in parentheses, uncorrected
[21] = corrected results, read-out: SD MTD (mg/kg), Table 8

Structure (SMILES) | Urine 2 hr, percent of administered dose [3, 16] | Urine 24 hr, percent of administered dose [3, 17] | IC50 [7] [µM] | IC50 [8] [µM] | IC50 [9] [µM] | acute toxicity within 24 hours (normal ICR mice) | SD-MTD (mg/kg Dox=) (normal ICR mice) | AUC(0-t) [10] [µM·h] | single dose MTD fold higher than doxorubicin alone, after post-analysis (normal mice) | acute toxicity (normal mice) | single-dose MTD, doxorubicin equivalent (normal mice; 28 days) | single-dose MTD fold higher than doxorubicin alone (normal mice) | MTD [11, 18] [mg/kg] | MTD [11, 19] [mg/kg] | MTD [11, 20] [mg/kg] | MTD [11, 21] [mg/kg] | Major Plasma Metabolite, Table 7 [12] | Major Plasma Metabolite, Table 8 [12] | other results
COc1cccc2c1C(=O)c1c(O)c3c(c(O)c1C2=O)C[C@@](O)(C(=O)CO)C[C@@H]3O[C@H]1C[C@H](N)[C@H](O)[C@H](C)O1 [Doxorubicin, reference compound] | 0.06 % of administered dose | 0.36 % of administered dose | – | – | – | – | – | – | – | – | – | – | – | – | – | – | – | – | Optimal Efficacy Repeat Dose (mg/kg) ([1]; five doses at five day or 1 week intervals, 60 days): 4 (4) mg/kg; Optimal Efficacy Repeat Dose, molar equivalent dose of doxorubicin ([1]; value in parentheses): 4 (4) mg/kg; IC50 [2]: 0.02 to 0.08 µM; Plasma 4 hr, percent of administered dose ([3]; mouse, in vivo, 4 h): 0.00 % of administered dose; tolerated repeat dose level of doxorubicin (standard safe RD efficacious dose) (tumor bearing mice [4]): 4 mg/kg and 3 mg/kg; efficacy of doxorubicin alone at its tolerated dose in LS174t model [5]: historically ineffective; also recorded: completely ineffective; Urine 2 hr, percent of administered dose ([6]; collected 0-2 hours): 0.21 % of administered dose; Urine 24 hr, percent of administered dose ([6]; collected 2-24 hours): 0.51 % of administered dose
CC[C@H](C)[C@H](NC(=O)CCC(=O)O)C(=O)N[C@@H](C)C(=O)N[C@@H](CC(C)C)C(=O)N[C@H]1C[C@H](O[C@H]2C[C@](O)(C(=O)CO)Cc3c(O)c4c(c(O)c32)C(=O)c2c(OC)cccc2C4=O)O[C@@H](C)[C@H]1O [Suc-Ile-Ala-Leu-Dox] | 3.9 % of administered dose | 15.0 % of administered dose | 1.1 | 88 | 47 | no acute toxicity | 56 mg/kg Dox= and 58 mg/kg Dox= | 452 | at least 3.3 fold | no acute toxicity | 66 mg of doxorubicin/kg and 70 mg of doxorubicin/kg | at least 16 fold | > 117 | 56 | > 70 | 94 | Leu-Dox | Leu-Dox | mortalities (normal mice; doses up to 117 mg/kg, 28 days): no mortalities; relative exposure to doxorubicin ([12]; tripeptide vs tetrapeptide counterpart, leucine vs isoleucine compounds): two fold decrease
CC[C@H](C)[C@H](NC(=O)CCNC(=O)CCC(=O)O)C(=O)N[C@@H](C)C(=O)N[C@@H](CC(C)C)C(=O)N[C@H]1C[C@H](O[C@H]2C[C@](O)(C(=O)CO)Cc3c(O)c4c(c(O)c32)C(=O)c2c(OC)cccc2C4=O)O[C@@H](C)[C@H]1O [Suc-βAla-Ile-Ala-Leu-Dox] | – | – | 0.19 | 57 | 38 | no acute toxicity | 42 mg/kg Dox= | 326 | approximately 3.7 fold | No acute toxicity | 40 mg of doxorubicin/kg | approximately 10 fold | 75 | 42 | 42 | 75 | Leu-Dox | Leu-Dox | morbidity or mortality (normal ICR mice; 75 mg/kg dose group): no morbidity or mortality; animals euthanized due to weight loss or paralysis (normal ICR mice; 100 mg/kg dose, by Day 21, groups of five): three; SD-MTD Molar Ratio (Dox=) (normal ICR mice; fold higher on a molar basis than SD-MTD of doxorubicin): 2.6; MTD [13]: 75 mg/kg; Urine 2 hr, percent of administered dose ([3]; mouse, in vivo): 12.7 % of administered dose; Urine 24 hr, percent of administered dose ([3]; mouse, in vivo): 4.81 % of administered dose; morbidity (normal mice; 75 mg/kg dose group): no morbidity; animals euthanized due to treatment-related toxicity (normal mice; 100 mg/kg dose group, Day 21, groups of five): two; animals euthanized due to treatment-related toxicity (normal mice; 125 mg/kg dose group, Day 14, groups of five): four; MTD ([11]; iv, intravenous bolus, normal mice, 28 days, read-out: single-dose Maximum Tolerated Dose (MTD)): 75 mg/kg; RD-MTD, doxorubicin equivalent per dose (tumor bearing mice [14]; Q7Dx5 as printed): 30 mg/kg doxorubicin equivalent; RD-MTD as total exposure (tumor bearing mice [14]; after 5 doses (Q5DX5)): approximately 150 mg/kg doxorubicin equivalent; treated animals terminated due to signs of toxicity (tumor bearing mice [14]; high dose group (68 mg/kg, Q5DX5), groups of ten): Two; RD-MTD fold higher than RD-MTD / tolerated repeat dose level of doxorubicin (tumor bearing mice [14]; versus doxorubicin 4 mg/kg): at least 6.5 fold; MTD ([15]; Q7Dx5 as printed, based on efficacy study in Example 8, read-out: RD-MTD (repeat-dose MTD)): ~53 mg/kg; MTD ([15]; Repeat Dose MTD, doxorubicin equivalent dose, Table 8, value in parentheses, corrected results): 30 mg/kg; MTD ([15]; corrected results, Q 5D × 5 or Q 7D × 5, read-out: Repeat Dose MTD (mg/kg), Table 8): 53 mg/kg

— patent publication US7696313B2, “Prodrug compounds with isoleucine” (priority 2000, dated 2010)
